Test results published in patent US20240336672A1.

Tests used:
[1] = target: T1, SARS-CoV-2 omicron variant B.1.1.529 RBD domain (SARS-CoV-2); test: ELISA; unit from paragraph 452, none printed in the heatmap; settings: remark: other sources report otherwise
[2] = target: T2, SARS-CoV-2 omicron variant B.1.1.529 Spike ectodomain (tri-S, HexaPro) (SARS-CoV-2), P0DTC2; test: as above; settings: remark: other sources report otherwise
[3] = target: T3, SARS-CoV-2 delta variant B.1.617.2/3 RBD domain (SARS-CoV-2); test: ELISA; settings: remark: other sources report otherwise
[4] = target: T4, SARS-CoV-2 kappa variant B.1.617.1/3 RBD domain (SARS-CoV-2); test: ELISA; settings: remark: other sources report otherwise
[5] = target: SARS-CoV-2 delta plus variant RBD (SARS-CoV-2); test: ELISA; settings: remark: other sources report otherwise
[6] = target: T2, SARS-CoV-2 omicron variant B.1.1.529 …; settings: remark: other sources report otherwise
ε (SARS-CoV-2) = test: flow cytometry (Mock 2.5)
[7] = target: SARS-CoV-2 δ variant spike protein, cell-expressed (SARS-CoV-2); test: flow cytometry (Mock 2.5)
κ (SARS-CoV-2) = test: flow cytometry (Mock 2.5)
α (SARS-CoV-2) = test: flow cytometry (Mock 2.5)
ι (SARS-CoV-2) = test: flow cytometry (Mock 2.5)
γ (SARS-CoV-2) = test: flow cytometry (Mock 2.5)
β (SARS-CoV-2) = test: flow cytometry (Mock 2.5)
[8] = target: T3, SARS-CoV-2 delta variant B.1.617.2/3 …; test: RBD-ACE2 competition ELISA; design: unit not given beside the values; settings: remark: other sources report otherwise
[9] = target: T4, SARS-CoV-2 kappa variant B.1.617.1/3 …; test: RBD-ACE2 competition ELISA; design: unit not given beside the values; settings: remark: other sources report otherwise
[10] = target: SARS-CoV-2 delta plus variant RBD (SARS-CoV-2); test: RBD-ACE2 competition ELISA; design: unit not given beside the values; settings: remark: other sources report otherwise
[11] = target: T3, SARS-CoV-2 delta variant B.1.617.2/3 …; test: ELISA; design: unit not given beside the values; settings: remark: other sources report otherwise
[12] = target: T4, SARS-CoV-2 kappa variant B.1.617.1/3 …; test: ELISA; design: unit not given beside the values; settings: remark: other sources report otherwise
[13] = target: SARS-CoV-2 delta plus variant RBD (SARS-CoV-2); test: ELISA; design: unit not given beside the values; settings: remark: other sources report otherwise
[14] = target: T3, SARS-CoV-2 delta variant B.1.617.2/3 …; test: RBD-ACE2 competition ELISA [letter not given]; settings: remark: other sources report otherwise
[15] = target: T2, SARS-CoV-2 omicron variant B.1.1.529 …; test: tri-S/ACE2 blocking ELISA [B]; settings: remark: other sources report otherwise
[16] = target: T1, SARS-CoV-2 omicron variant B.1.1.529 …; test: ELISA; design: unit not given beside the values; settings: remark: other sources report otherwise
[17] = target: T2, SARS-CoV-2 omicron variant B.1.1.529 …; test: ELISA; design: unit not given beside the values; settings: remark: other sources report otherwise

B1: Adintrevimab (antibody, V domains shown)
VH: EVQLVESGGGLVKPGGSLRLSCAASGFTFSSYYMNWVRQAPGKGLEWVSSISEDGYSTYYPDSLKGRFTISRDSAKNSLYLQMNSLRADDTAVYYCARDFSGHTAWAGTGFEYWGQGTLVTVSS
VL: QSVLTQPPSVSGAPGQRITISCTGSSSNIGAGYDVHWYQQLPGTAPKLLIYGSSSRNSGVPDRFSGSKSGTSASLAITGLQAEDEADYYCQSYDSSLSVLYTFGTGTKVTVL
[1]
  EC50: 0.056 µg/mL
[2]
  EC50: 9 ng/mL
[3]
  OD405nm: 3.4
[4]
  OD405nm: 3.6
[5]
  OD405nm: 3.4
[6]
  IC50: > 2 µg/mL

B2: Imdevimab (antibody, V domains shown)
VH: QVQLVESGGGVVQPGRSLRLSCAASGFTFSNYAMYWVRQAPGKGLEWVAVISYDGSNKYYADSVKGRFTISRDNSKNTLYLQMNSLRTEDTAVYYCASGSDYGDYLLVYWGQGTLVTVSS
VL: QSALTQPASVSGSPGQSITISCTGTSSDVGGYNYVSWYQQHPGKAPKLMIYDVSKRPSGVSNRFSGSKSGNTASLTISGLQSEDEADYYCNSLTSISTWVFGGGTKLTVL
ε (SARS-CoV-2)
  log10 ΔgMFI: 4.5
[7]
  log10 ΔgMFI: 4.5
κ (SARS-CoV-2)
  log10 ΔgMFI: 4.7
α (SARS-CoV-2)
  log10 ΔgMFI: 4.4
ι (SARS-CoV-2)
  log10 ΔgMFI: 4.9
γ (SARS-CoV-2)
  log10 ΔgMFI: 4.6
β (SARS-CoV-2)
  log10 ΔgMFI: 3.9

B3: Cv2.5213 (recombinant human IgG1) (antibody)
heavy: EVQLVESGGGLIQPGGSLRLSCAASGFTVSSNYMSWVRQAPGKGLEWVSLIYSGGSTYYADSVKGRFTISRDNSKNTLYLQMNSLRAEDTAVYYCARDLNYYGMDVWGQGATVTVSSASTKGPSVFPLAPSSKSTSGGTAALGCLVKDYFPEPVTVSWNSGALTSGVHTFPAVLQSSGLYSLSSVVTVPSSSLGTQTYICNVNHKPSNTKVDKKVEPKSCDKTHTCPPCPAPELLGGPSVFLFPPKPKDTLMISRTPEVTCVVVDVSHEDPEVKFNWYVDGVEVHNAKTKPREEQYNSTYRVVSVLTVLHQDWLNGKEYKCKVSNKALPAPIEKTISKAKQPREPQVYTLPPSRDELTKNQVSLTCLVKGFYPSDIAVEWESNGQPENNYKTTPPVLDSDGSFFLYSKLTVDKSRWQQGNVFSCSVMHEALHNHYTQKSLSLSPGK
light: not shown
[8]
  AUC (RBD block.): 91
[9]
  AUC (RBD block.): 150
[10]
  AUC (RBD block.): 33
[11]
  AUC (RBD bind.): 13
[12]
  AUC (RBD bind.): 13
[13]
  AUC (RBD bind.): 12
[14]
  IC50 (read off the curve): 1 µg/mL
[15]
  AUC of blocking: 10
[16]
  AUC: 1
[17]
  AUC: 2
